Target: T1, L1 cell adhesion molecule (L1CAM) on the surface of HeLa cells (human, UniProt P32004 20-1257)
T1 construct: whole, on cells; Endogenous L1CAM of HeLa cells ("HeLa cells that highly express human L1CAM"); also called CD171; human L1CAM
Assay: flow cytometry on HeLa cells, MFI dose-response
Protocol: Humanized anti-L1CAM antibodies (Human IgG1-Kappa) are diluted in complete medium, in a four-fold serial dilution, with 7 concentration gradient points.
HeLa cells are cultured in DMEM complete medium (Corning, 10-013-CVR) containing 10% FBS (Gibco, 10099-141) and 100 U/mL penicillin-streptomycin mixture (Thermofisher, 15140122). When the cell coverage in the culture container reaches 80-90%, TrypLE (Thermofisher, 12604-013) is used to digest the HeLa cells from the culture container, and they are seeded in a 96-well plate (AXYGEN, P-96-450V-C) at a density of 2.2×10⁶ cells/ml, with 100,000 cells (45 μL complete medium) per well. Then, 5 μL of the antibody dilution is added to each well, mixed gently, and the 96-well plate is incubated at 4° C. for 1 hour. Then, 150 μL of PBS (Corning, 21-040-CVC) containing 2% FBS is added to each well, centrifuged at 1400 rpm for 4 minutes, the supernatant is removed, and washed once again. Then, 50 μL of Alexa Fluor 647-labeled goat anti-human fluorescent secondary antibody (Jacksonimmuno, 109-605-088) diluted at 1:800 is added to each well, and the 96-well plate is incubated at 4° C. for 0.5 hours. The cells are washed twice with PBS solution containing 2% FBS, then resuspended in 120 μL of PBS, and the fluorescent signal on the cell surface is detected using a flow cytometer (BD FACS Celesta), obtaining and the median fluorescence intensity (MFI). A dose-response curve is generated, and the half-maximal effective concentration (EC50) is calculated using non-linear regression with GraphPad software.

T1 sequence (P32004 20-1257): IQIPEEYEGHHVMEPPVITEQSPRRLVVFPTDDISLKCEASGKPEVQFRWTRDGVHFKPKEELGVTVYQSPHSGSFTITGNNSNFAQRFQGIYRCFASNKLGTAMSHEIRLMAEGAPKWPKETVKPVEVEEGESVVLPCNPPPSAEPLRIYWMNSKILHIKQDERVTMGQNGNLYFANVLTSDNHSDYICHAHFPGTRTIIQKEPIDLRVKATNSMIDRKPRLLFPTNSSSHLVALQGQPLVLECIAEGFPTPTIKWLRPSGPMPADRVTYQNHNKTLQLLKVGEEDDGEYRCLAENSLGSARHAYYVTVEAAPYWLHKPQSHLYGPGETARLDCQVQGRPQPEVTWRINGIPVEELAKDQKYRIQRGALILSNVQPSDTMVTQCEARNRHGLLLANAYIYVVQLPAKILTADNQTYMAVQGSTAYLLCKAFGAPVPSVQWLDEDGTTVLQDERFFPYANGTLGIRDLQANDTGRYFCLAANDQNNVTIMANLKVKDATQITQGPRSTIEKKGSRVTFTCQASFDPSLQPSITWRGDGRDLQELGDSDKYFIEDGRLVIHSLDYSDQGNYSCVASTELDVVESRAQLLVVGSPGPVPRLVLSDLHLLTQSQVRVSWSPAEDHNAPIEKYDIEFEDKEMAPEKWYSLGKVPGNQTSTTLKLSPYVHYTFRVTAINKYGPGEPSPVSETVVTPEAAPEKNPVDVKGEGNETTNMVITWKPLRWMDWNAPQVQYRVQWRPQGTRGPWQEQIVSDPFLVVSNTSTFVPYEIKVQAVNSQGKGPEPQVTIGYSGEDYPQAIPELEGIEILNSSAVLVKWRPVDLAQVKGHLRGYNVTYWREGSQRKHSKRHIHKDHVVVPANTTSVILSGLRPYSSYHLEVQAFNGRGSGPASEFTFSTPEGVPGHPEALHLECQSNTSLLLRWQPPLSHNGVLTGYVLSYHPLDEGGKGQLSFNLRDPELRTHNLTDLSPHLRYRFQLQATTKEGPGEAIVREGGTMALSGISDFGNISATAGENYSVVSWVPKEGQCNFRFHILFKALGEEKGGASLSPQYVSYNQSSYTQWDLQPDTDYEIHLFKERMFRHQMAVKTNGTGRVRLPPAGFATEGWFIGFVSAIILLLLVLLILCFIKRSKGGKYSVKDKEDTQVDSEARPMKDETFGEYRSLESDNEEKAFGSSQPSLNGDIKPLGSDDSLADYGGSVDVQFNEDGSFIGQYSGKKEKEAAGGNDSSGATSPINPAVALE

Binder	EC50
hz26A12C1H4L3 (antibody, human IgG1, kappa, V domains shown, also called humanized anti-L1CAM antibody) VH: QVQLVQSGAEVKKPGSSVKVSCKASGYTFTNYWIQWVRQAPGQGLEWIGYINPSTYYSDYNQKFQGRVTLTADKSTSTAYMELSSLRSEDTAVYYCARRQFGLPLFDYWGQGTTVTVSS VL: DIQMTQSPSSLSASVGDRVTITCRASQDVGTAVAWYQQKPGKVPKLLIYWASTLHSGVPSRFSGSGSGTDFTLTISSLQPEDVATYFCQQYSNYPLTFGGGTKVEIKR	0.738 nM
hz46F1D5H4L3 (antibody, human IgG1, kappa, V domains shown, also called humanized anti-L1CAM antibody) VH: QVQLVQSGAEVKKPGSSVKVSCKASGYTFTRYWIQWVRQAPGQGLEWMGYINPSTGYTDYNQKFQGRVTITADKSTSTAYMELSSLRSEDTAVYYCARRHLGLPLFDYWGQGTTVTVSS VL: DIQMTQSPSSVSASVGDRVTITCRASQDVGTAVAWYQQKPGKAPKLLIYWASSLHSGVPSRFSGSGSGTDFTLTISSLQPEDFATYFCQQYSNYPLTFGGGTKVEIKR	1.27 nM
hz49E10H1H5L6 (antibody, human IgG1, kappa, V domains shown, also called humanized anti-L1CAM antibody) VH: DVQLQESGPGLVKPSQTLSLTCTVSGGSISSDYAWNWIRQPPGKGLEWMGYITYSGTTTYNPSLKSRITISRDTSKNQFSLKLSSVTAADTAVYYCARDHYGNYAYFDYWGQGTTVTVSS VL: DIQMTQSPSSLSASVGDRVTITCRASSSVSFMHWYQQKPGKAPKPWIYASSNLVSGVPSRFSGSGSGTDFTLTISSLQPEDFATYYCQQWSSNPSTFGGGTKVEIKR	0.404 nM
hz103E9B3H5L5 (antibody, human IgG1, kappa, V domains shown, also called humanized anti-L1CAM antibody) VH: EVQLVQSGAEVKKPGASVKVSCKASGYTFTSYTMHWVRQAPGQGLEWMGDINPNYGGTSYNEKFKDRVTMTTDTSTSTAYMELRSLRSDDTAVYYCAREGATGTWYFDVWGQGTTVTVSS VL: DIQMTQSPSSLSASVGDRVTITCSASSSVSFMFWYQQKPGKAPKPLIYLTSNLASGVPSRFSGSGSGTDFTLTISSLQPEDFATYYCQQWRSNPPTFGGGTKVEIKR	1.68 nM

The next lines start with the values.

EC50	Binder
1.48 nM	hz103E9B3H6L5 (antibody, human IgG1, kappa, V domains shown, also called humanized anti-L1CAM antibody) VH: EVQLVQSGAEVKKPGASVKVSCKASGYTFTSYTMHWVRQAPGQGLEWMGDINPNYGGTSYNEKFKDRATMTTDTSTSTAYMELRSLRSDDTAVYYCAREGATGTWYFDVWGQGTTVTVSS VL: DIQMTQSPSSLSASVGDRVTITCSASSSVSFMFWYQQKPGKAPKPLIYLTSNLASGVPSRFSGSGSGTDFTLTISSLQPEDFATYYCQQWRSNPPTFGGGTKVEIKR
0.377 nM	hz49E10H1H5L7 (antibody, human IgG1, kappa, V domains shown, also called humanized anti-L1CAM antibody) VH: DVQLQESGPGLVKPSQTLSLTCTVSGGSISSDYAWNWIRQPPGKGLEWMGYITYSGTTTYNPSLKSRITISRDTSKNQFSLKLSSVTAADTAVYYCARDHYGNYAYFDYWGQGTTVTVSS VL: QIQMTQSPSSLSASVGDRVTITCRASSSVSFMHWYQQKPGKAPKPWIYASSNLVSGVPSRFSGSGSGTDYTLTISSLQPEDFATYYCQQWSSNPSTFGGGTKVEIKR
